Literature values in publication PMC11747410.
Read-outs that look alike come from different tables or passages of the source.

Tests used:
[1] = molecular target: CD166/ALCAM (Homo sapiens) (UniProt Q13740)
[2] = molecular target: CD166/ALCAM (Homo sapiens) (UniProt Q13740); remark: listed apart in the source

CD6 (from UniProt P30203)
Kd [1]: 0.7 µM

CD166/ALCAM (from UniProt Q13740)
Kd [2]: 38.5 µM
